Measured values published in patent publication US11946041B2, “Modification of polypeptides” (BicycleRD Limited, priority 2017, dated 2024).

How the values were obtained:
CCR4 [1] = target: T1, CCR4 (Homo sapiens, UniProt P51679); experiment: PathHunter eXpress CCR4 CHO-K1 β-Arrestin GPCR Assay, agonist format; format: cell-based
T1 construct: host or cells: CHO-K1
T1 sequence (P51679 1-360): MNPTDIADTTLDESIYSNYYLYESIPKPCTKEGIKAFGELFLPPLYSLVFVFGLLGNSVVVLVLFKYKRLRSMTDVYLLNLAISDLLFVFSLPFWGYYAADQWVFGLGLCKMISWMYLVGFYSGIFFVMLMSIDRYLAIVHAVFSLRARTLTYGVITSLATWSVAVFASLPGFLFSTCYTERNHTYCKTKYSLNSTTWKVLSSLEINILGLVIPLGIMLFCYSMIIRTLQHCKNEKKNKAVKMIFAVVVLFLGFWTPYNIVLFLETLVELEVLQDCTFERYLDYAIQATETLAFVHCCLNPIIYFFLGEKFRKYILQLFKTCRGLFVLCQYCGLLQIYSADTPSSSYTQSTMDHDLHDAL
Experimental: (§1) The aim of the present experiment was to analyze if if these peptides are functional using a Discoverx Assay, the Beta-Arrestin recruitment assay, to identify agonism or antagonism in the selected peptides.
(§2) Standard protocols used: • PathHunter® eXpress CCR4 CHO-K1 β-Arrestin GPCR Assay. 100 dp (1×96-well)
(§3) The experiment was carried using the manufacturer instructions.
The concentration was increased to test for response at high concentration.

CCR4 [2] = target: T1, CCR4; experiment: PathHunter eXpress CCR4 CHO-K1 β-Arrestin GPCR Assay, antagonist format with CCL22; format: cell-based
Experimental: as §1, §2, §3
We therefore used the assay in an antagonist format, using 10 nM CCL22.
We repeated this experiment lowering the concentration of CCL22 from 10 nM to 1 nM to show a full inhibition curve.

## ACLSCARHGNQCA [24-12-00-N001, bicyclic peptide ligand, TATA scaffold, from CCR4 cell-based selection]
CCR4 [1]; 0.006 nM
  Raw Data: 31416
CCR4 [1]; 0.02 nM
  Raw Data: 30201
CCR4 [1]; 0.06 nM
  Raw Data: 30311
CCR4 [1]; 0.17 nM
  Raw Data: 27668
CCR4 [1]; 0.51 nM
  Raw Data: 34202
CCR4 [1]; 1.5 nM
  Raw Data: 31584
CCR4 [1]; 4.6 nM
  Raw Data: 28872
CCR4 [1]; 13.9 nM
  Raw Data: 27830
CCR4 [1]; 41.7 nM
  Raw Data: 26640
CCR4 [1]; 125 nM
  Raw Data: 25288
CCR4 [1]; 375 nM
  Raw Data: 22486
CCR4 [1]; high concentration, 0.001 uM
  Raw Data: 10679
CCR4 [1]; high concentration, 0.003 uM
  Raw Data: 11299
CCR4 [1]; high concentration, 0.008 uM
  Raw Data: 11106
CCR4 [1]; high concentration, 0.023 uM
  Raw Data: 12540
CCR4 [1]; high concentration, 0.1 uM
  Raw Data: 13063
CCR4 [1]; high concentration, 0.2 uM
  Raw Data: 13783
CCR4 [1]; high concentration, 0.6 uM
  Raw Data: 13041
CCR4 [1]; high concentration, 1.9 uM
  Raw Data: 13661
CCR4 [1]; high concentration, 5.6 uM
  Raw Data: 12922
CCR4 [1]; high concentration, 16.7 uM
  Raw Data: 12407
CCR4 [1]; high concentration, 50 uM
  Raw Data: 12457
CCR4 [2]; 1 nM CCL22, 0.001 uM
  Raw Data: 205771
CCR4 [2]; 1 nM CCL22, 0.003 uM
  Raw Data: 230925
CCR4 [2]; 1 nM CCL22, 0.008 uM
  Raw Data: 216507
CCR4 [2]; 1 nM CCL22, 0.023 uM
  Raw Data: 200429
CCR4 [2]; 1 nM CCL22, 0.1 uM
  Raw Data: 190863
CCR4 [2]; 1 nM CCL22, 0.2 uM
  Raw Data: 196279
CCR4 [2]; 1 nM CCL22, 0.6 uM
  Raw Data: 195159
CCR4 [2]; 1 nM CCL22, 1.9 uM
  Raw Data: 184486
CCR4 [2]; 1 nM CCL22, 5.6 uM
  Raw Data: 225342
CCR4 [2]; 1 nM CCL22, 16.7 uM
  Raw Data: 123432
CCR4 [2]; 1 nM CCL22, 50 uM
  Raw Data: 101311
CCR4 [2]; 10 nM CCL22, 0.001 uM
  Raw Data: 162386
CCR4 [2]; 10 nM CCL22, 0.003 uM
  Raw Data: 192263
CCR4 [2]; 10 nM CCL22, 0.008 uM
  Raw Data: 193071
CCR4 [2]; 10 nM CCL22, 0.023 uM
  Raw Data: 176223
CCR4 [2]; 10 nM CCL22, 0.1 uM
  Raw Data: 168443
CCR4 [2]; 10 nM CCL22, 0.2 uM
  Raw Data: 197817
CCR4 [2]; 10 nM CCL22, 0.6 uM
  Raw Data: 207362
CCR4 [2]; 10 nM CCL22, 1.9 uM
  Raw Data: 197426
CCR4 [2]; 10 nM CCL22, 5.6 uM
  Raw Data: 164381
CCR4 [2]; 10 nM CCL22, 16.7 uM
  Raw Data: 163675
CCR4 [2]; 10 nM CCL22, 50 uM
  Raw Data: 134429

## ACPLMSSVNCTAGCA [24-13-00-N001, bicyclic peptide ligand, TBMB scaffold, from CCR4 cell-based selection]
CCR4 [1]; 0.006 nM
  Raw Data: 27634
CCR4 [1]; 0.02 nM
  Raw Data: 30705
CCR4 [1]; 0.06 nM
  Raw Data: 30335
CCR4 [1]; 0.17 nM
  Raw Data: 31512
CCR4 [1]; 0.51 nM
  Raw Data: 31217
CCR4 [1]; 1.5 nM
  Raw Data: 34513
CCR4 [1]; 4.6 nM
  Raw Data: 29431
CCR4 [1]; 13.9 nM
  Raw Data: 24436
CCR4 [1]; 41.7 nM
  Raw Data: 23071
CCR4 [1]; 125 nM
  Raw Data: 22524
CCR4 [1]; 375 nM
  Raw Data: 20081
CCR4 [1]; high concentration, 0.001 uM
  Raw Data: 11252
CCR4 [1]; high concentration, 0.003 uM
  Raw Data: 11640
CCR4 [1]; high concentration, 0.008 uM
  Raw Data: 12612
CCR4 [1]; high concentration, 0.023 uM
  Raw Data: 12684
CCR4 [1]; high concentration, 0.1 uM
  Raw Data: 13168
CCR4 [1]; high concentration, 0.2 uM
  Raw Data: 13560
CCR4 [1]; high concentration, 0.6 uM
  Raw Data: 12989
CCR4 [1]; high concentration, 1.9 uM
  Raw Data: 12391
CCR4 [1]; high concentration, 5.6 uM
  Raw Data: 12460
CCR4 [1]; high concentration, 16.7 uM
  Raw Data: 12506
CCR4 [1]; high concentration, 50 uM
  Raw Data: 11512
CCR4 [2]; 1 nM CCL22, 0.001 uM
  Raw Data: 229814
CCR4 [2]; 1 nM CCL22, 0.003 uM
  Raw Data: 230497
CCR4 [2]; 1 nM CCL22, 0.008 uM
  Raw Data: 210841
CCR4 [2]; 1 nM CCL22, 0.023 uM
  Raw Data: 219415
CCR4 [2]; 1 nM CCL22, 0.1 uM
  Raw Data: 218869
CCR4 [2]; 1 nM CCL22, 0.2 uM
  Raw Data: 228712
CCR4 [2]; 1 nM CCL22, 0.6 uM
  Raw Data: 229977
CCR4 [2]; 1 nM CCL22, 1.9 uM
  Raw Data: 190843
CCR4 [2]; 1 nM CCL22, 5.6 uM
  Raw Data: 200574
CCR4 [2]; 1 nM CCL22, 16.7 uM
  Raw Data: 156536
CCR4 [2]; 1 nM CCL22, 50 uM
  Raw Data: 114497
CCR4 [2]; 10 nM CCL22, 0.001 uM
  Raw Data: 195228
CCR4 [2]; 10 nM CCL22, 0.003 uM
  Raw Data: 200825
CCR4 [2]; 10 nM CCL22, 0.008 uM
  Raw Data: 201223
CCR4 [2]; 10 nM CCL22, 0.023 uM
  Raw Data: 183445
CCR4 [2]; 10 nM CCL22, 0.1 uM
  Raw Data: 170995
CCR4 [2]; 10 nM CCL22, 0.2 uM
  Raw Data: 195355
CCR4 [2]; 10 nM CCL22, 0.6 uM
  Raw Data: 181254
CCR4 [2]; 10 nM CCL22, 1.9 uM
  Raw Data: 194535
CCR4 [2]; 10 nM CCL22, 5.6 uM
  Raw Data: 180947
CCR4 [2]; 10 nM CCL22, 16.7 uM
  Raw Data: 179127
CCR4 [2]; 10 nM CCL22, 50 uM
  Raw Data: 133745
